The Kd is a measure of binding affinity in units of concentration.

Series [1] has as its target T1, NCYM (Homo sapiens, UniProt P40205 1-109).
T1 sequence: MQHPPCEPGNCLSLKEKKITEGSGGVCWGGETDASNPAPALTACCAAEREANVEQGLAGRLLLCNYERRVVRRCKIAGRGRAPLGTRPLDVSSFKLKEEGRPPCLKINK
Briefly: BLI; text gives 299 nM as top of range; BLI: 25 C, NCYM 25-400 nM, buffer not stated (selection buffer: 40 mM HEPES pH 7.5, 125 mM NaCl, 5 mM KCl, 1 mM MgCl2, 0.01% Tween 20); AFM: 20 mM Tris-HCl pH 7.4, 10 mM MgCl2, 1 mM EDTA, 25 C, 2 h, NCYM 100 nM, aptamer frame 10 nM; SAXS: 293 K. As to conditions: protein: recombinant; tags: N-terminal GST tag cleaved, 8 vector residues left (117 aa; stated for SAXS); label: 5'-biotin (BLI). Background: Biolayer interferometry detects binding as a change in optical thickness at a sensor tip.

In series [2] the target is T1, NCYM. The series can be described thus: BLI; BLI: 25 C, NCYM 25-400 nM, buffer not stated (selection buffer: 40 mM HEPES pH 7.5, 125 mM NaCl, 5 mM KCl, 1 mM MgCl2, 0.01% Tween 20); AFM: 20 mM Tris-HCl pH 7.4, 10 mM MgCl2, 1 mM EDTA, 25 C, 2 h, NCYM 100 nM, aptamer frame 10 nM; SAXS: 293 K. As to conditions: protein: recombinant, tags: N-terminal GST tag cleaved, 8 vector residues left (117 aa; stated for SAXS), label: 5'-biotin (BLI).

B1: aptamer No. 2 (ssDNA)
DNA: GGAATGTGGTCCCTCGCAATAAATCGGGGAGGGAGGGTGGGGGCGGTGGGAGGTGGAAATGAGCCCTTTGACCCTGTAC
As to B1, in the series with NCYM [1], the Kd stood at 298 ± 88.7 nM.

B2: aptamer No. 3 (ssDNA)
DNA: GGAATGTGGTCCCTCGCAATAAATCGGGCGTTGTGGAGGGGGCGGTGGGTGGGGGGAAATGAGCCCTTTGACCCTGTAC
With B2, the Kd with NCYM [2] is 53.9 ± 1.06 nM.

B3: aptamer No. 1 (ssDNA)
DNA: GGAATGTGGTCCCTCGCAATAAATCTATGTACGTTATTCCCCTTTGACCAATGCTGAAATGAGCCCTTTGACCCTGTAC
For the molecule B3, the Kd with NCYM [2] (stem-loops predicted by RNAfold, dimer in solution (SAXS)) was 176 ± 29.1 nM.

The values above are taken from publication PMC10701690, “Structural characterization of human de novo protein NCYM and its complex with a newly identified DNA aptamer using atomic force microscopy and small-angle X-ray scattering”.
